# Data taken from PMC4598982, “Impact of Cell-surface Antigen Expression on Target Engagement and Function of an Epidermal Growth Factor Receptor × c-MET Bispecific Antibody*” (The Journal of Biological Chemistry, 2015).
# B1: c-MET(1–960) C-terminally fused to a complementary inactive fragment of β-galactosidase (receptor, UniProt P08581 25-960, looked up)
# chain: ECKEALAKSEMNVNMKYQLPNFTAETPIQNVILHEHHIFLGATNYIYVLNEEDLQKVAEYKTGPVLEHPDCFPCQDCSSKANLSGGVWKDNINMALVVDTYYDDQLISCGSVNRGTCQRHVFPHNHTADIQSEVHCIFSPQIEEPSQCPDCVVSALGAKVLSSVKDRFINFFVGNTINSSYFPDHPLHSISVRRLKETKDGFMFLTDQSYIDVLPEFRDSYPIKYVHAFESNNFIYFLTVQRETLDAQTFHTRIIRFCSINSGLHSYMEMPLECILTEKRKKRSTKKEVFNILQAAYVSKPGAQLARQIGASLNDDILFGVFAQSKPDSAEPMDRSAMCAFPIKYVNDFFNKIVNKNNVRCLQHFYGPNHEHCFNRTLLRNSSGCEARRDEYRTEFTTALQRVDLFMGQFSEVLLTSISTFIKGDLTIANLGTSEGRFMQVVVSRSGPSTPHVNFLLDSHPVSPEVIVEHTLNQNGYTLVITGKKITKIPLNGLGCRHFQSCSQCLSAPPFVQCGWCHDKCVRSEECLSGTWTQQICLPAIYKVFPNSAPLEGGTRLTICGWDFGFRRNNKFDLKKTRVLLGNESCTLTLSESTMNTLKCTVGPAMNKHFNMSIIISNGHGTTQYSTFSYVDPVITSISPKYGPMAGGTLLTLTGNYLNSGNSRHISIGGKTCTLKSVSNSILECYTPAQTISTEFAVKLKIDLANRETSIFSYREDPIVYEIHPTKSFISGGSTITGVGKNLNSVSVPRMVINVHEAGRNFTVACQHRSNSEIICCTTPSLQQLNLQLPLKTKAFFMLDGILSKYFDLIYVHNPVFKPFEKPVMISMGNENVLEIKGNDIDPEAVKGEVLKVGNKSCENIHLHSEAVLCTVPNDLLKLNSELNIEWKQAISSTVLGKVIVQPDQNFTGLIAGVVSISTALLLLLGFFLWLKKRKQ
# notes: signal peptide in the construct; membrane localisation of the construct was checked by flow cytometry; In the homodimer cell line two copies carry the two complementary β-gal fragments; also called hepatocyte growth factor receptor; HGF receptor; source: U-2 OS cells, stably transfected, on cells
# Molecular target: the molecule itself
# Assay: split reporter (BiFC, NanoBiT); PathHunter enzyme fragment complementation in the c-MET homodimer U-2 OS cell line; recombinant human HGF serially diluted; 6 h at room temperature; lower levels with bivalent c-MET mAb, even lower levels with JNJ-61186372 and monovalent c-MET BsAbs
protein,measurement,value
B1,EC50 of HGF for c-MET homodimerization,3.21 nM
